Consider 1 molecule from PMC3291655, “LEDGF/p75-Independent HIV-1 Replication Demonstrates a Role for HRP-2 and Remains Sensitive to Inhibition by LEDGINs” (PLoS Pathogens, 2012).

The target in test [1] is T1, MBP-HRP-2(448-670), maltose binding protein fusion of the C-terminal part of Hepatoma-derived growth factor … (human, UniProt Q7Z4V5-2 448-670).
T1 construct: Hepatoma-derived growth factor related protein 2 (HRP-2), human, C-terminal part aa 448-670, which holds the IBD (aa 470-593); the range called the C-terminal end stops at 670, which fits the 670-residue isoform; amplified from p3xFlagHRP-2 and ligated into pMAL-c2E; source: E. coli, purified (amylose resin)
T1 sequence (looked up): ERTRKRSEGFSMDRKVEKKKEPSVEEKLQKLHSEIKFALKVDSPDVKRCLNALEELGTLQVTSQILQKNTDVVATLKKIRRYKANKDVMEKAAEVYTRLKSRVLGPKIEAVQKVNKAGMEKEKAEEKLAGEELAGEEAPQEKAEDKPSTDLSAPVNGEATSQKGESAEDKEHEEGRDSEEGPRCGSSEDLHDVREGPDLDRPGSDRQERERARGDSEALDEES
The test is described as follows: AlphaScreen or HTRF; IN-His6 titrated (2-fold dilutions from 500 to 1.9 nM) against 10 nM MBP fusion; anti-MBP donor beads and Ni2+-chelate acceptor beads; 25 mM Tris-HCl pH 7.4, 150 mM NaCl, 1 mM MgCl2, 0.1% Tween-20, 0.1% BSA; 1 h at 4°C, then 1 h at RT with beads; apparent KD, one-site specific binding with ligand depletion. Conditions: both partners purified. In general terms: Bead proximity is the source of the signal in Alpha formats.

The target in test [2] is T2, MBP-LEDGF/p75(325-530), maltose binding protein fusion of the C-terminal end of LEDGF/p75 (human, UniProt O75475-1 325-530).
T2 construct: also called MBP-LEDGF_(325–530); LEDGF_(325–530); source: E. coli BL21(DE3), purified (amylose resin)
T2 sequence (looked up): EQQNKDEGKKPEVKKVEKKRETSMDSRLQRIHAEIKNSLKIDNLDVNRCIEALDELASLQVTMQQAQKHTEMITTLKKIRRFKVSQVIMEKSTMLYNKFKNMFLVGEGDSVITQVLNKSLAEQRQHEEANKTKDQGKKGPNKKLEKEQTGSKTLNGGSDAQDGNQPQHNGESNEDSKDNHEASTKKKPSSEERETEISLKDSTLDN
The description is as above. As to conditions: both partners purified.

B1: HIV-1 integrase with a C-terminal His6 tag (enzyme)
chain: FLDGIDKAQEEHEKYHSNWRAMASDFNLPPVVAKEIVASCDKCQLKGEAMHGQVDCSPGIWQLDCTHLEGKVILVAVHVASGYIEAEVIPAETGQETAYFLLKLAGRWPVKTVHTDNGSNFTSTTVKAACWWAGIKQEFGIPYNPQSQGVIESMNKELKKIIGQVRDQAEHLKTAVQMAVFIHNFKRKGGIGGYSAGERIVDIIATDIQTKELQKQITKIQNFRVYYRDSRDPVWKGPAKLLWKGEGAVVIQDNSDIKVVPRRKAKIIRDYGKQMAGDDCVASRQDED
Regarding B1, the Kd in test [1] was 89.8 nM; in test [2] it was 6.6 nM.
